T1: human FGFR3 protein (Sino Biological, Cat. No. 16486-H08H) (human, UniProt P22607-2 23-377)
T1 construct: Bought recombinant protein; construct not described
T1 sequence (looked up): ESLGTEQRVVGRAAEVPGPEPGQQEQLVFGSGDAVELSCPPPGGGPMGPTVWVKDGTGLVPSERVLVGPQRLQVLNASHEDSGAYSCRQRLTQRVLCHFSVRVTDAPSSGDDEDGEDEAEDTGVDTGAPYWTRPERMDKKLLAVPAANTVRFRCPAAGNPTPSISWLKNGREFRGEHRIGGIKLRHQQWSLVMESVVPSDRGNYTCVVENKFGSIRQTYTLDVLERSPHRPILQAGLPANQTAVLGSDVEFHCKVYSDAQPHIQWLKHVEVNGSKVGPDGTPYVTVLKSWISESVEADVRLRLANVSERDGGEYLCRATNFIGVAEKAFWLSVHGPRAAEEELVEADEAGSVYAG

T2: human FGFR1 protein (ACRO Biosystems, Cat. No. FG1-H5223) (human, UniProt P11362-14 22-285)
T2 construct: Bought recombinant protein; construct not described
T2 sequence (looked up): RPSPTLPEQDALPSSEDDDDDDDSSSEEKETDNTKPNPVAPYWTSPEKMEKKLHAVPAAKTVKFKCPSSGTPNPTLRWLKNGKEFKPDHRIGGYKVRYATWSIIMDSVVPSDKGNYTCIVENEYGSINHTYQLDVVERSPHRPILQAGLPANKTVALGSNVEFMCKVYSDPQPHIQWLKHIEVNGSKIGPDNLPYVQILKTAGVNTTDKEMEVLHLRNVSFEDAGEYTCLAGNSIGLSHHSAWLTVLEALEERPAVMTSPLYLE

T3: cynomolgus FGFR2-his protein (cynoFGFR2-his) (cynomolgus)
T3 construct: Extracellular region of cynomolgus FGFR2b (XP_028682763.1) with a 6xHis tag; also called cynomolgus FGFR2 extracellular protein
T3 chain: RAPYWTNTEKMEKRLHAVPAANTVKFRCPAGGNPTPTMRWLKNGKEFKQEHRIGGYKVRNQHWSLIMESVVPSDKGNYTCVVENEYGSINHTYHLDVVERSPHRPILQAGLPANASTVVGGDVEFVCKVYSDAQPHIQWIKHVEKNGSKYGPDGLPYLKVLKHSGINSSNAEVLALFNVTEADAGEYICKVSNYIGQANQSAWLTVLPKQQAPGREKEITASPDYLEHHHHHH

T4: human FGFR2-his protein (huFGFR2-his) (human)
T4 construct: Extracellular region of human FGFR2 (NP_001138385.1) with a 6xHis tag; also called human FGFR2 extracellular protein
T4 chain: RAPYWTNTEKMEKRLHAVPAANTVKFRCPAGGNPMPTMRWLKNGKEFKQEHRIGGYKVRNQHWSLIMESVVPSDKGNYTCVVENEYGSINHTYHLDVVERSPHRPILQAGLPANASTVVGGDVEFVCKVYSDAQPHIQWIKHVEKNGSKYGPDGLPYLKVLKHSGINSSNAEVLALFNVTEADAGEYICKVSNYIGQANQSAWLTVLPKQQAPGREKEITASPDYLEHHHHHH


Columns and labels:
[1] = molecular target: T1, human FGFR3 protein (Sino Biological, …); assay: ELISA, FGFR3 coated
[2] = molecular target: T5, human FGFR4 protein (Sino Biological, Cat. No. 10538-H08H) (human, UniProt P22455 22-369); assay: ELISA, FGFR4 coated
T5 construct: Bought recombinant protein; construct not described

[3] = molecular target: T2, human FGFR1 protein (ACRO Biosystems, …); assay: ELISA, FGFR1 coated
[4] = molecular target: T3, cynomolgus FGFR2-his protein …; assay: BLI (ForteBio Octet RED96e), antibody on AHC sensor, cynomolgus FGFR2-his in solution, 1:1 model
[5] = molecular target: T4, human FGFR2-his protein (huFGFR2-his); assay: BLI (ForteBio Octet RED96e), antibody on AHC sensor, FGFR2-his in solution, 1:1 model

Binder	binding result [1]	binding result [2]	binding result [3]	Kd [4]	koff [4]	kon [4]	Kd [5]	koff [5]	kon [5]
antibody G11B8 (murine chimeric anti-FGFR2 antibody) (antibody, human IgG1, kappa, V domains shown) VH: EVQLQQSGPELVKPGASVKIPCKASGYTFTDYNMDWVKQSHGKSLEWIGDINPKNGETFYNQKFKGKATLTVDRSSNTAYMELRSLTSEDTAVYFCAKRDLNWYFDYWGQGTTLTVSS VL: DIQMTQSSSYLSVSLGGRVTITCKASDHINNWLAWYQQKPGNAPRLLISGATSLETGVPSRFSGSGSGKDYTLSITSLQTEDVATYYCQQYWSTPWTFGGGTKLEIKR	no binding	no binding	no binding						
antibody H3F7-a (murine chimeric anti-FGFR2 antibody) (antibody, human IgG1, kappa, V domains shown) VH: EVQLQQSGPELVKPGASVKIPCKASGYTFTDYNMDWVKQSHGKSLEWIGDINPKNGETFYNQKFKGKATLTVDRSSSTAYMELRSLTSEDTAVYFCAKRDLNWYFDYWGQGTTLTVSS VL: DIQMTQSSSYLSVSLGGRVTITCKASDHINNWLAWYQQKPGNAPRLLISGATSLETGVPSRFSGSGSGKDYTLSITSLQTEDVATYYCQQYWSTPWTFGGGTKLEIKR	no binding	no binding	no binding						
antibody A1B2 (murine chimeric anti-FGFR2 antibody) (antibody, human IgG1, kappa, V domains shown) VH: EVQLQQSGAELVRPGASVKLSCTASGFNIKDYYMHWVKQRPEQGLEWIGRIDPEDGDTEYAPKFQGKATMTADTSSNTAYLQLSSLTSEDTAVYYCTTYYYVSTYEDYWGQGTTLTVSS VL: QIVLTQSPAIMSASLGEEITLTCSASSSVSHMHWYQQKSGTSPKLLIYSTSNLASGVPSRFSGSGSGTFYSLTISSVEAEDAADYYCHHWSSWTFGGGTKLEIKR	no binding	no binding	no binding						
humanized monoclonal antibody huG11B8-5 (antibody, human IgG1, kappa, V domains shown, huG11B8H-3 + huG11B8L-1; human IgG1 / kappa) VH: EVQLVQSGAEVKKPGATVKISCKASGYTFTDYNMDWVQQAPGKGLEWMGDINPKNGETFYAEKFQGRVTLTVDRSTNTAYMELSSLRSEDTAVYFCAKRDLNWYFDYWGQGTTVTVSS VL: DIQMTQSPSSLSASVGDRVTITCQASDHINNWLAWYQQKPGKAPKLLISGATSLETGVPSRFSGSGSGKDYTFTISSLQPEDIATYYCQQYWSTPWTFGGGTKVEIKR				1.62 nM	0.000866 s⁻¹	536000 M⁻¹ s⁻¹	2.62 nM	0.000431 s⁻¹	164000 M⁻¹ s⁻¹

The remaining lines, values ahead:

binding result [1]	binding result [2]	binding result [3]	Kd [4]	koff [4]	kon [4]	Kd [5]	koff [5]	kon [5]	Binder
no binding	no binding	no binding							antibody F3F8 (murine chimeric anti-FGFR2 antibody) (antibody, human IgG1, kappa, V domains shown) VH: QVTLKESGPGILQSSQTLSLTCSFSGFSLSTSGMGVSWIRQPSGKGLEWLAHIYWDNDKRYNPSLKSRLTISKDTSRNQVFLKITSVDTADTATYYCTRSDSSGSFDYWGQGTTLTVSS VL: DIQMTQTTSSLSASLGDRVTISCRASQDISNYLNWYQQKPDGTVKFLIYYTSTLHSGVPSRFSGSGSGTDYSLTISNLEQEDIATYFCQQGNTLPWTFGGGTKLEIKR
no binding	no binding	no binding							antibody D12D8 (murine chimeric anti-FGFR2 antibody) (antibody, human IgG1, kappa, V domains shown) VH: QVQLQQSGAELARPGASVKLSCKASGYTFTNYGISWVKQRTGQGLEWIGEIYPRSGNTYYNEKFKGKATLTADKSSSTAYMELRSLTSEDSAVYFCARGDYSNSDYWGQGTTLTVSS VL: DIQMTQTTSSLSASLGDRVTISCRASQDITDHLNWYQQKPDGTVKLLIYYTSRLHSGVPSRFSGSGSGTDYSLTISNLEQEDIATYFCQQGNTLPRTFGGGTKLEIKR
no binding	no binding	no binding							antibody F6B6 (murine chimeric anti-FGFR2 antibody) (antibody, human IgG1, kappa, V domains shown) VH: QVQLKQSGPGLVQPSQSLSITCTVSGFSLTNYGVHWVRQSPGKGLEWLGVIWSDGSTDYDAAFISRLSISTDNSKSQVFFKMNSLQAADTAIYYCARKGDYDYDNYAMDYWGQGTSVTVSS VL: DVVITQSPATLSVTPGDSVSLSCRASQSISNNLHWYQQKSHESPRLLIKYASQSISGIPSRFSGSGSGTDFTLSINSVETEDFGMYFCQQSNSWPLTFGAGTKLELKR
no binding	no binding	no binding							bemarituzumab (antibody, human IgG1, kappa, V domains shown) VH: QVQLVQSGAEVKKPGSSVKVSCKASGYIFTTYNVHWVRQAPGQGLEWIGSIYPDNGDTSYNQNFKGRATITADKSTSTAYMELSSLRSEDTAVYYCARGDFAYWGQGTLVTVSS VL: DIQMTQSPSSLSASVGDRVTITCKASQGVSNDVAWYQQKPGKAPKLLIYSASYRYTGVPSRFSGSGSGTDFTFTISSLQPEDIATYYCQQHSTTPYTFGQGTKLEIKR
